The values below come from publication PMC6629437 (Cell, 2019).

Substitutions are numbered along the chain they refer to. Names may count otherwise.

The target in experiment [1] is T1, HA head domain of H1 A/Solomon Islands/3/2006 (Influenza A virus A/Solomon …, strain).
T1 chain: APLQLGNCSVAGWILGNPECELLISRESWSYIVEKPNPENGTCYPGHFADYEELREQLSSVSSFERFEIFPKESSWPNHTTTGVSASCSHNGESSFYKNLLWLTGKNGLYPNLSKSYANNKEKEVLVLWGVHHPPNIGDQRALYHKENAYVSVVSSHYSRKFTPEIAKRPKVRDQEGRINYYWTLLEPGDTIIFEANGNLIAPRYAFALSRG
As to the kind of experiment: BLI. (In BLI a coated tip is dipped into the sample, and binding shifts an interference pattern.)

The target of a further experiment is H1 HA of A/Texas/36/1991 (Influenza A virus A/Texas/36/1991 (H1N1), UniProt Q6WG02, strain). As to the kind of experiment: ELISA. For orientation: In an ELISA, binding on a coated surface is turned into a signal by an enzyme label.

B1: rFluA-20 Fab (Fab, V domains shown)
VH: QVQLEESGPGLVKPSETLSLTCSVSGVSVTSDIYYWTWIRQPPGKGLEWIGYIFYNGDTNYNPSLKSRVTMSIDTSKNEFSLRLTSVTAADTAVYFCARGTEDLGYCSSGSCPNHWGQGTLVTVSS
VL: DIVMTQSPSSLSASIGDRVTITCRPSQNIRSFLNWFQHKPGKAPKLLIYAASNLQSGVPSRFSGSGSGTEFTLTIRSLQPEDFATYYCQQSYNTPPTFGQGTKVEIK
On to B1, for which, in experiment [1], the binding result is “binds”.

B2: rFluA-20 IgG Q55A (L) (antibody, V domains shown)
VH: B1 VH
VL: B1 VL with Q55A
With B2, in the experiment with H1 HA of A/Texas/36/1991, the binding result is listed as “binds”.

B3: rFluA-20 IgG D98A (H) (antibody, V domains shown)
VH: B1 VH with D103A
VL: B1 VL
As to B3, the binding result with H1 HA of A/Texas/36/1991 is “no binding (tested: 10 μg/mL)”.

B4: rFluA-20 IgG Y49A (L) (antibody, V domains shown)
VH: B1 VH
VL: B1 VL with Y49A
For B4, the binding result in the experiment with H1 HA of A/Texas/36/1991 is on record as “no binding (tested: 10 μg/mL)”.
